In patent US20220033460A1 (REPERTOIRE IMMUNE MEDICINES, published 2022):

Biological target: […] / HLA-B*07:02 tetramer (human; SARS-CoV-2)
Assay: DNA-barcoded tetramer staining, single-cell sequencing

B1: TCR_11 (TCR, V domains shown)
V domain 1: EDQVTQSPEALRLQEGESSSLNCSYTVSGLRGLFWYRQDPGKGPEFLFTLYSAGEEKEKERLKATLTKKESFLHITAPKPEDSATYLCAVQAPMSARGSQGNLIFGKGTKLSVKP
V domain 2: GAGVSQSPSNKVTEKGKDVELRCDPISGHTALYWYRQSLGQGLEFLIYFQGNSAPDKSGLPSDRFSAERTGGSVSTLTIQRTQQEDSAVYLCASSSKGGGQQTQYFGPGTRLLVLE
Q: For B1, which “No. of Cells” value is on record?
A: The value was 10 cells.
